Drawing on US5976792, this text covers cpm of 125I fibronectin bound to 10^9 CFU for three substances.

The assay addresses 125I-labeled fibronectin. Nature of the assay: binding of 125I-labeled fibronectin to whole bacterial cells.
Regarding “whole cells of S. aureus sar mutant ALC136 (isogenic mutant of RN6390 carrying a sar::Tn917LTV1 mutation) (cells without a defined receptor)”, the cpm of 125I fibronectin bound to 10^9 CFU was 2390 cpm.

In turn, “whole cells of S. aureus ALC561 (ALC136 with pALC561, sar fragment nt 1-1349) (cells without a defined receptor)” yielded a cpm of 125I fibronectin bound to 10^9 CFU of 19300 cpm. As for “whole cells of S. aureus strain RN6390 (parental strain) (cells without a defined receptor)”, the cpm of 125I fibronectin bound to 10^9 CFU amounted to 3320 cpm.
